Source: the Human Domainome abundance scans (Beltran et al. 2025)

B1: Homeobox protein cut-like 1, residues 548 to 629; numbered along this chain, P39880 (parent)
chain: GEEMDTAEIARQVKEQLIKHNIGQRIFGHYVLGLSQGSVSEILARPKPWNKLTVRGKEPFHKMKQFLSDEQNILALRSIQGR

Variants of: B1
Assay: abundance fitness (aPCA) (normalised: wild type 0, dead -1); higher = more abundant; growth selection in yeast, the domain comes from the species named
Details: Homo sapiens

Abundance fitness of substitutions, site by site:
Q65: M -0.056; R -0.039; A -0.02; Y -0.169; N 0.022; I -0.096; S -0.059; T -0.029; F -0.446; L -0.082; V -0.117; K -0.076; E 0.053; C -0.172; G -0.232
E58: P -0.819; G -0.35; S -0.252; D -0.105; T -0.255; K -0.23; V -0.062; R -0.273; F -0.416; H -0.618; A -0.168; L -0.121; W -0.227; I -0.234; Q -0.047; N -0.27; Y -0.166; C -0.441; M -0.132
K57: Y -0.528; C -0.393; T -0.408; A -0.2; E -0.476; N -0.601; V -0.455; P -0.663; W -0.526; H -0.426; I -0.284; Q 0.057; L -0.288; F -0.742; R 0.013; S -0.334; M -0.152; G -0.525
K51: P -0.912; G -0.198; L 0.011; S 0.006; Q 0.122; N 0.012; Y -0.195; H -0.075; V 0.053; M -0.011; T 0.011; W -0.338; R -0.047; I -0.008
S68: L -0.088; H -0.292; E 0.013; F -0.187; W -0.4; M -0.083; I -0.198; P -0.656; K -0.023; R -0.157; D -0.02; V -0.304; Q -0.049; Y -0.297; A -0.041; T -0.122; C -0.133
T53: W -0.566; H -0.432; K -0.686; Y -0.821; N -0.077; A -0.341; I -0.521; R -0.767; E -0.251; M -0.45; F -0.55; S 0.049; G -0.032; D 0.116; V -0.671; Q -0.369; P -0.254
R55: V -0.06; W -0.095; L -0.04; H 0.077; A 0.075; P -0.159; M -0.028; I -0.148; G -0.011; N -0.142; Y -0.096; F -0.041; C -0.051; K 0.066; E 0.135; Q 0.067; S 0.004; D 0.027; T 0.007
F66: M -0.648; H -0.966; Q -0.791; A -0.758; L -0.662; K -0.829; Y -0.924; G -0.934; P -0.77; I -0.573; R -1.04; S -0.829; W 0.116; C -0.963; E -0.887; N -0.781
K62: M -0.231; C -0.413; E -0.506; V -0.307; L -0.12; S -0.443; F -0.603; W -0.749; N -0.532; R -0.126; Y -0.522; G -0.729; T -0.305; P -0.989; I -0.16; A -0.201
D69: P -0.75; L -0.318; M -0.231; G -0.267; F -0.252; T -0.181; V -0.308; W -0.387; I -0.425; N -0.015; E -0.134; K -0.108; H -0.182; A -0.174; Y -0.351; R -0.207
